The target of test [1] is Recombinant human TGF-β1 (human) (UniProt P01137). As to the kind of experiment: SPR, TGF-β1 coupled, rearrangement model, rearrangement step. For orientation: In SPR one partner is held on a chip, and binding of the other changes the refractive index at the surface.
For test [2] the target is unchanged. The test is described as follows: SPR, TGF-β1 coupled, rearrangement model, Kdiss#1.
Test [3] has the same target. As to the kind of experiment: SPR, TGF-β1 coupled, rearrangement model, kass#1.
Test [4] has the same target. The test is described as follows: SPR, TGF-β1 coupled, rearrangement model, Kdapp.
Test [5] has the same target. As to the kind of experiment: SPR, TGF-β1 coupled, rearrangement model, Kd 1 (initial binding step).

Sequence of Recombinant human TGF-β1 (human) (P01137 279-390 limits assumed): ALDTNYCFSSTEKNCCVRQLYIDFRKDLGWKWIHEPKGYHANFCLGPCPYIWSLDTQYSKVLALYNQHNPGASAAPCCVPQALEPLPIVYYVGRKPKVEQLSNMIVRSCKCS

B1: untagged CtermTβRIIIED (receptor, UniProt P26342 576-782, looked up)
chain: RQLRNPSGFQGQLDGNATFNMELYNTDLFLVPSPGVFSVAENEHVYVEVSVTKADQDLGFAIQTCFLSPYSNPDRMSDYTIIENICPKDDSVKFYSSKRVHFPIPHAEVDKKRFSFLFKSVFNTSLLFLHCELTLCSRKKGSLKLPRCVTPDDACTSLDATMIWTMMQNKKTFTKPLAVVLQVDYKENVPSTKDSSPIPPPPPQIFH
The term koff denotes the rate constant with which the complex falls apart. As usually defined, the kon is the second-order rate constant of association. Consider B1, for which, in test [1], the kass#2 was 0.0029 s⁻¹, the kd 2 (no unit) is 0.73 no unit and the kdiss#2 amounted to 0.00217 s⁻¹. Besides, in test [2], the koff is 0.0535 s⁻¹. Moreover, the kon in test [3] is 75000 M⁻¹ s⁻¹. In addition, the Kd in test [4] stood at 302 nM. Moreover, in test [5], the Kd was 713 nM.

The record behind these values is patent US20070154994A1.
